# Patent US20250215081A1
# B1: anti-CD3 antibody CD3hi (mAb) (antibody, V domains shown)
# VH: EVQLVESGGGLVQPGGSLKLSCAASGFTFNTYAMNWVRQASGKGLEWVGRIRSKYNNYATYYADSVKDRFTISRDDSKSTLYLQMNSLKTEDTAVYYCVRHGNFGNSYVSWFAYWGQGTLVTVSS
# VL: QAVVTQEPSLTVSPGGTVTLTCRSSTGAVTTSNYANWVQQKPGQAPRGLIGGTNKRAPWTPARFSGSLLGDKAALTLSGAQPEDEAEYFCALWYSNLWVFGGGTKLTVL
# B2: anti-CD3 antibody CD3lo (mAb) (antibody, V domains shown)
# VH: EVQLVESGGGLVQPGGSLKLSCAASGFTFNTYAMNWVRQASGKGLEWVGRIRSKYNNYATYYADSVKDRFTISRDDSKSTAYLQMNSLKTEDTAVYYCVRHGNFGNSYVSWFAYWGQGTLVTVSS
# VL: QAVVTQEPSLTVSPGGTVTLTCRSSTGAVTTSNYANWVQQKPGQAPRGLIGGTNKRAPWTPARFSGSLLGDKAALTLSGAQPEDEAEYFCALWYSNLWVFGGGTKLTVL
# B3: anti-CD3 antibody CD3med (mAb) (antibody, V domains shown)
# VH: EVQLVESGGGLVQPGGSLKLSCAASGFTFNTYAMNWVRQASGKGLEWVGRIRSKYNNYATYYADSVKDRFTISRDDSKNTAYLQMNSLKTEDTAVYYCVRHGNFGNSYVSWFAHWGQGTLVTVSS
# VL: QAVVTQEPSLTVSPGGTVTLTCGSSTGAVTSSNYANWVQQKPGQAPRGLIGGTNKRAPWTPARFSGSLLGGKAALTLSGAQPEDEAEYYCALWYSNLWVFGGGTKLTVL
# Target: human Fc gamma receptor 1A (human) (UniProt P12314)
# Assay: SPR (Biacore T200), antibody amine-coupled on CM5 (~950 RU), FcγR1A as analyte
# Chain of UniProt P12314 (P12314 16-288 limits assumed): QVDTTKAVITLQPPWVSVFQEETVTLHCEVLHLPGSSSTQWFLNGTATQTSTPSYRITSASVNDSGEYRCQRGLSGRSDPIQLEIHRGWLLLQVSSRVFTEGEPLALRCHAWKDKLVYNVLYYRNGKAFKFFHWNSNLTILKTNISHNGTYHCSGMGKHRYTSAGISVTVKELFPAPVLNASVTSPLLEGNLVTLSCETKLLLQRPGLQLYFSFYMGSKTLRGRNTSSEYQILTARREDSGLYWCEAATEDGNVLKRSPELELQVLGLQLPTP
row,Molecule,Maximum response at 100 nM hFcgammaRIA (RU)
1,Anti-CD3 DANAPA-IgG1 (D265A/N297A/P329A) (antibody),11
2,Anti-CD3 GADAPASK-IgG1 (G237A/D265A/P329A/S267K) (antibody),10
3,Anti-CD3 LALAPG-IgG1 (L234A/L235A/P329G) (antibody),18
4,Anti-CD3 LALASKPA-IgG1 (L234A/L235A/S267K/P329A) (antibody),9
5,Anti-CD3 LALAGA-IgG1 (L234A/L235A/G237A) (antibody),15
6,Anti-CD3 GADAPA-IgG1 (G237A/D265A/P329A) (antibody),16
7,Anti-CD3 DAPASK-IgG1 (D265A/P329A/S267K) (antibody),13

# Target: CD3-Fc
# Assay: SPR (Biacore T200, 25 C), CD3-Fc captured on anti-hFc CM5 chip, antibody as analyte, 1:1 model
row,Molecule,Kd [nM]
1,B1,16
2,B2,48
3,B3,30
